This is an account of results in the nanobody polyreactivity screen of Harvey et al. (2022).

This series can be described thus: yeast display, Sf9 membrane polyspecificity reagent, FACS + sequencing; frameworks hold sequencing errors. In short, it runs like this: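 Galactose-induced (36–48 hours) yeast carrying a synthetic nanobody display library were exposed to 10% biotinylated, detergent-solubilized Sf9 membrane reagent at 4 °C for 1 hour. FACS followed streptavidin microbead enrichment, using low and high (top ~1%) gates for expression (anti-HA) and reagent binding (streptavidin). Colony PCR, MiSeq 2 × 250 sequencing and CDR-length filtering followed. Labels for polyreactivity reflect the gate of origin.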
In the case of “QVQLEESGGGLVQAGGSLRLSCAASGSTFRYYAMGWYRQAHGKERELVAGISSSGGSTYYADSVKGRFTISRDNAKNTVYLQMNSLKPEDTAVYYCNAARGSSRSWAVFADYDYWGQGTQVTVSS”, the “polyreactivity (PSR sort gate)” value is “high polyreactivity”.
As for “QVQLEESGGGLVQAGGSLRLSCAASGSTFTGYAMGWYRQAPGKERELVAAISISGGRTFYADSVKVRFTISRDNAKNTVYLQMNSLKPEDTAVYYCAAYLRGSKYSFDYWGQGTQVTVSS”, the “polyreactivity (PSR sort gate)” value is recorded as “high polyreactivity”.
As to “QVQLEESGGGLVQAGGSLRLSCAASGSTFTLNAMGWYRQAPGKERELVADISWSSGRTYYADSVKGRFTISRDNAKNTVYLQMNSLKPEDTAVYYCATDDFWNVKFYAYYPEFDYWGQGTQVTVSS”, the “polyreactivity (PSR sort gate)” value is reported as “low polyreactivity”.
As for “QVQLEESGGGLVQAGGSLRLSCAASGSTFYAYAMGWYRQAPGKERELVAAIDSGGSTYYADSVKGRFTSSRDNAKNTVYLQMNSLKPEDTAVYYCAVRHRYTRAFWGRDYWGQGTQVTVSS”, the “polyreactivity (PSR sort gate)” value is “low polyreactivity”.
“QVQLEESGGGLVQAGGSLRLSCAASGSTFYLYDMGWYRQAPGKERELVATITSATSTTYADSVKGRFTISRDNATNTVYLQMNSLNPEHTAVYYCNATDVGIITVGYGHGGYYWGQGTQVTVSS”: the “polyreactivity (PSR sort gate)” value is reported as “low polyreactivity”.
Then “QVQLEESGGGLVQAGGSLRLSCAASGSTLEYNVMGWYRQAPGKERELVAAFSRSGGITYYADSVKGRFTISRDNAKNTVYLQMNRLKPEDTAVYYCNRLYTRVREYESWGQGTQVTVSS”, with “high polyreactivity”; and “QVQLEESGGGLVQAGGSLRLSCAASGSTLGYNVMGWYRQAPGKERELVAAISGDGSTNYADSVKGRFTISRDNAKNTVYLQMNSLKPEDTAVYYCAADTYGGSRDYWGQGTQVTVSS”, with “low polyreactivity”; and “QVQLEESGGGLVQAGGSLRLSCAASGYTFGFYTMGWYRQAPGQERALVAGISWSGGSTYYADSVKGPFTISRDNAKNTVYLQMNSLKQEDTAVFYCAAVSTRVLVNYDSWGQGTQVTVSS”, with “high polyreactivity”.
Then “QVQLEESGGGLVQAGGSLRLSCAASGYTFRPYAIGWYRQAAGKERVLVAAISRSGGRTYYADSVKGRFTISRDNAKNTVYLQMNSLIPEDTAVYYCAADRFSLSGFDSWGQGTQGTVSS”, with “low polyreactivity”; and “QVQLEESGGGLVQAGGSLRLSCAASGYTFYYYAMGWYRQAPGKERELVAAISRSGGSTYYADSVKGRFTISRDNAKNTVSLQMNSLKQEDTAVYYCAARRLVGAERPGYDYWGQGTQVTVSS”, with “high polyreactivity”; and “QVQLEESGGGLVQAGGSLRLSCAATGLIFRTYAMGWYRQAPGKERELVAAISYSGGSTFYADSVNGRFTISRDNAKNTVYLQMNRLKPEDTAVYYCAADSRAKRYYWGQGTQVTVSS”, with “high polyreactivity”.
In the case of “QVQLEESGGGLVQAGGSLRLSCAAYGIIFRTYDMGWYRQAPGKEREFVAAINSDCSTYYADSVKGRFTFSRDNAKNSVYLQMISVKTEDTAVYYCASDHYYAGAWYYFWGQGTQVTVSS” it was “high polyreactivity”.
For the sequence “QVQLEESGGGLVQAGGSLRLSCAGSGFTFGVYAMGWYRQAPGKERELVAVIRGSGGSTYYADSVKGRFTISRDKAKNTVYLQMNSLKPEDTAGYYCAARRYQYVWSLYNYWGQGTQVTVSS”, the “polyreactivity (PSR sort gate)” value is on record as “high polyreactivity”.
Then “QVQLEESGGGLVQAGGSLRLSCPASGIIFGSYAMGWSRQAPGKERELVAAITSDGITNYADSVKGRFTISRDNGKNTVYLPMNSLKPEDTAVYYCAAPGPLGGSDYWGQGTQVTVSS”, with “low polyreactivity”.
In the case of “QVQLEESGGGLVQAGGSLRLSCPASGSTFGKNAMGWSRQAPGKERELVASITWRGGCTYYADSVKGRITISRDNAKNTVFLQMNSLKPEDTAVYYCATNWHIHIGSYKYYYWGQGTQVTVSS” it was “low polyreactivity”; in that of “QVQLEESGGGLVQAGGSLRLSSAASGRIFGGYAMGWYRQAPGKEREMVAAITQSGGSTYYADSVKGRFTISRDNAKNTVYLQMNSLTAEDTAVYYCNARLARGYWTPGKERPMEYWGQGTQVTVSS”, “low polyreactivity”.
Take “QVQLEESGGGLVQAGGSLRLSSAASGSTFCWYAMGGYRKEPGKERELVAAISIGGSTKYADSVKGRLTISRDNAKNSVYLQMNRMKPEYSAVYYCAAEVSYHYVPYGYWGQGTQVTVSS”: the “polyreactivity (PSR sort gate)” value is listed as “low polyreactivity”.
For the sequence “QVQLEESGGGLVQAGGSLRLSSAASGSTFYIYVMGWYSQAPGKERELVARISSSGGSTYYADSVKGRFTISRDNAKNSVYLQMNSLKPVDTAVYYCNVDYGAWYDYWGQGTQVTVSS”, the “polyreactivity (PSR sort gate)” value was “low polyreactivity”.
In the case of “QVQLEESGGGLVQAGGSLRLSWAASGSTFSVNAMGWYRQAPGKERELVARITNGGSTYYADSVKGRFTISRDNAKNTVYLQMNSLKPEDTAVYYCAAKLGSYIYHKQRDWGQGTQVTVSS”, the “polyreactivity (PSR sort gate)” value is “low polyreactivity”.
In the case of “QVQLEESGGGLVQAGGSLRLTCAASGITFGTYAMGWYRQAPGKEREFVAGYYADSVKGRFTISRDNAKNTVYLQMNSLKPEDTAVYYCAADYLYHDDVDYWGQGTQVTVSS” it was “low polyreactivity”; in that of “QVQLEESGGGLVQAGGSLRLTCAASGSTFYGYAMGWYRQAPGKERELVAAITRSGGSTYYADSVKVRFTISRDNAKYTVYLQMNSLKPEDTAVYYCNKYIGWYGTGSDYYWGQGTQVNVSS”, “high polyreactivity”.
Regarding “QVQLEESGGGLVQAGGTLRLSCAASGSIFYGYAMGWYRKATGKQRDLVAVITDGGGSTYYADSVKGRFTISRDNAKNTVYLQMNSLKPEDTAVYYCAADSWGRYYYSSYSYDYWGQGTQVTVSS”, the “polyreactivity (PSR sort gate)” value is on record as “low polyreactivity”.
In the case of “QVQLEESGGGLVQEGGSLRLSCAASGRIFKWNAMGLYRQAPGKERELVAAISLSGGSTYYADSVKGRFTISRDNAKNTVYLQMNSLKPEDTAVYYCNAYAYHRYGYWGQGTQVTVSS” it was “high polyreactivity”; in that of “QVQLEESGGGLVQEGGSLRLSCAASGSTFVTYAMGWYRPSPGKARELVAAISQSGGSTYYADSVKGRFTISRDNAKNTVYLQMNSLKPEDSAVYYCAAEYWDIAYCFVWWIYDYWGQGTLVTVSS”, “high polyreactivity”; in that of “QVQLEESGGGLVQVGGSLRLSCAASGLTFRYYAMGWYRQAPGKERELVAAISGSGSTTYYADSVKGRFTISRDNAKNTVYLQMNSLKPEDTAVYYCNARRTGRVGGVVTHYYWGQGTQVTVSS”, “high polyreactivity”.
Then “QVQLEESGGGVVQAGGSLRLSCAASGGIFNVYVMGWYRQAPGKERELVAAITWRGGSTYYADSVKGRFTISRDNAKNTVYLQMNSLKPEDTAVYYCNADAPFQSSSDGYQVEYWGQGTQVTVSS”, with “low polyreactivity”; and “QVQLEESGGGVVQAGGSLRLSCAASGRTLSHYAIGWYRQAPGKERELVAVISWSGTSTYYADSVKGRFTISRDNAKNTVYLQMNSLKPEDTAVYYCNADTYGYYLWTGAVSAGDDYWGQGTQVTVSS”, with “low polyreactivity”; and “QVQLEESGGGVVQAGGSLSLSCAASVSTFIFNTMGWYRQATGKERELVASITGDGRTNYADSVKGRFTISRDNAKNTVYLQMNSLKPEDTAVYDCAADGYDQYPLWAPPGDYWGQGTQVTVSS”, with “low polyreactivity”.
Turning to “QVQLEESGGRLVQAGGSLRLSCAASGFIFGWNAMGWYRQAPGKERELVASIRSSGGTTYADSVKGRFTISRDNAKNTVYLEMNSLKPEDTAVYYCSKRDRYKRYDFWGLGTQVTVSS”, the “polyreactivity (PSR sort gate)” value is “low polyreactivity”.
Then “QVQLEESGGRLVQAGGSLRLSCAASGYTFPLYAMGWYRQAPGKERELVADINIGGASTYYADSVKGRFTISRDNAKNTVYLQMNSLKPEDTAVYYCAAEDSWYWDAWFDYWGQGTQVTVSS”, with “low polyreactivity”; and “QVQLEESGGVLVQAGGSLRLSCAASGRIFVWYAMGWYRQAPGKERELVAAISSADSTNYADSVKGRFTISRDNAKNTVYLQMNSLKPEDTAVYYCNAEGWPGNVVYGYYYWGQGTQVTVSS”, with “low polyreactivity”.
“QVQLEESGGVLVQAGGSLRLTCAAAGSILAYNSMGWYREAPGKERELVAAISWTGRTYYADSVKGRFTISRDNEKNTVYLQMNSLIPEDTAVYYCNARGRQRSRGSQIYDYWGQGTQVTVSS”: the “polyreactivity (PSR sort gate)” value is “high polyreactivity”.
As for “QVQLEESGRGLVQAGGSLRISCAASGRIFWGYAMGWYRQAPRKERELVARITSGGDTYYADSVKGRFTISRDNAKNTVYLQMNSLKPEDTAVYYCAAELRPGYRSSYGLIYDYWGQGTQVTVSS”, the “polyreactivity (PSR sort gate)” value is “low polyreactivity”.
In the case of “QVQLEESGRGLVQAGGSLRLSCAASGFIFYRNTMGWYRQAPGKERELVAAISVSGGSTNYADSVKGRFTISRDNAKNTVYLQINSLKPEVTAVYYCAARVRESLVYGGWDDYWGQGTQVTVSS” it was “high polyreactivity”.
Then “QVQLEESGRGLVQAGGSLRLSCAASGSIFGVYTMGWYRPAPRKDRELVAAISASGGRTYYADSVKGRFTISRDTAKITVYLQMNSLKPEDTAVYYCAARASKGYGWYDYWGQGTQVTVSS”, with “high polyreactivity”; and “QVQLEESGVGLVQAGGSLRLICAASGFTFYSYAMGWYRQAPGKERELVASISWRGGSTYYADSVKGRFTISRDNAKNTVYLQMNSLKPVDTAVYYCAAQKRGSPVYRRDYWGQGTEVTVSS”, with “high polyreactivity”; and “QVQLEESGVGLVQAGGSLRLSCADSGFSFRTNAMGWYRQAPGKERELVAAISRSSGSTYYADSVKGRFTISRDNSKNTVYLQMNSMKPEETAVYYCNAVRYYSRGYTRYDYWGQGSQVTVSS”, with “high polyreactivity”.
In the case of “QVQLEESRGGLGQAGGSLRLICAASGRTFAYNPMGWSRQAPGKERELVSAITWSGGSTYYADSVKGRFTISRDNAKNTVYLQMNSLKPEDTAVYYCAREWFQYSPYHRFDYWGQGTQVTVSS” it was “high polyreactivity”; in that of “QVQLEESRGGLVQAGGSLRLSCAASGRIFPVYVMGWDRQAPGKERELVAAINYNGGSTTDADSVKGRFTISRDNAKNTVDLQMNSLKPEDTAVYYCAKVGVLGYYTYYYWGQGIQVTVSS”, “low polyreactivity”; in that of “QVQLEESVGGLVQAGGSLRLICAASGSIFSSYAMGWYRQAPGKERELVATISKRGGITSYADSVKGRFTISRDNAKNTVYLQMNSLKPEDTAVYYCAADSWFSYRGPLYYWGQGTQVTVSS”, “high polyreactivity”.
For “QVQLEESVGGLVQAGGSLRLICAASGSTFVYNAMGWYRPAPGTERELVAAISSGGSTDYADSVKGRFTISRDNAKNTVYLQMNSLKPEDTAVYYCAARPDYRYHYWGQGTQVTVSS”, the “polyreactivity (PSR sort gate)” value was “high polyreactivity”.
